Data as given in the supplement of paper PMC9112550, “Optimization of the antimicrobial peptide Bac7 by deep mutational scanning” (BMC Biology, 2022).

System: Escherichia coli TOP10
Test: shrunken log2 fold change of peptide-encoding DNA abundance (4.5 h post-induction vs induction); higher = less antimicrobial activity (less host growth inhibition)
Conditions: time post-induction: 4.5 h; library: site-saturation at positions 5, 18, 19, 20
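Also: peptides expressed intracellularly from a pBAD plasmid library in pooled LB shake-flask culture, induced with 0.3% L-arabinose, DNA abundance read by NGS, three biological replicates, DESeq2 with apeglm shrinkage.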

Sequence | shrunken log2 fold change
RRIRLRPPRLPRPRPRPVPFPRP | 0.123
RRIRQRPPRLPRPRPRPGENPRP | -0.0193
RRIRHRPPRLPRPRPRPGMKPRP | -0.113
RRIRMRPPRLPRPRPRPWIDPRP | -0.146
RRIRWRPPRLPRPRPRPWQGPRP | -0.11
RRIRERPPRLPRPRPRPLVKPRP | -0.575
RRIRIRPPRLPRPRPRPFKAPRP | -0.431
RRIRIRPPRLPRPRPRPFSFPRP | -0.742
RRIRPRPPRLPRPRPRPSPLPRP | 0.0443
RRIRKRPPRLPRPRPRPTSQPRP | 0.149
RRIRHRPPRLPRPRPRPWQVPRP | -0.0402
RRIRGRPPRLPRPRPRPTETPRP | 0.559
RRIRARPPRLPRPRPRPLVCPRP | 0.483
RRIRDRPPRLPRPRPRPECDPRP | 1.39
RRIRYRPPRLPRPRPRPSPMPRP | -0.486
RRIRGRPPRLPRPRPRPSPTPRP | 0.828
RRIRKRPPRLPRPRPRPGWNPRP | 0.106
RRIRVRPPRLPRPRPRPVYKPRP | -0.302
RRIRIRPPRLPRPRPRPLCFPRP | -0.485
RRIRLRPPRLPRPRPRPNFRPRP | -0.195
RRIRKRPPRLPRPRPRPFLNPRP | 0.00977
RRIRHRPPRLPRPRPRPLFYPRP | -0.702
RRIRSRPPRLPRPRPRPWQNPRP | -0.194
RRIRTRPPRLPRPRPRPCIAPRP | -0.226
RRIRDRPPRLPRPRPRPHIGPRP | -0.0522

Sequence | shrunken log2 fold change
RRIRMRPPRLPRPRPRPSRYPRP | -0.173
RRIRYRPPRLPRPRPRPAIFPRP | -0.0382
RRIRPRPPRLPRPRPRPHHEPRP | -0.066
RRIRWRPPRLPRPRPRPPSCPRP | 0.0112
RRIRDRPPRLPRPRPRPMWNPRP | 0.108
RRIRCRPPRLPRPRPRPQDTPRP | -0.313
RRIRQRPPRLPRPRPRPPSVPRP | 0.0958
RRIRRRPPRLPRPRPRPNEPPRP | 0.317
RRIRERPPRLPRPRPRPTNHPRP | -0.472
RRIRWRPPRLPRPRPRPYIPPRP | -1.15
RRIRDRPPRLPRPRPRPMFFPRP | 0.125
RRIRDRPPRLPRPRPRPTQIPRP | 0.114
RRIRARPPRLPRPRPRPNMKPRP | -0.348
RRIRQRPPRLPRPRPRPEDMPRP | 0.0353
RRIRLRPPRLPRPRPRPQVNPRP | -0.141
RRIRVRPPRLPRPRPRPTCCPRP | 0.095
RRIRRRPPRLPRPRPRPDRFPRP | 0.394
RRIRNRPPRLPRPRPRPAQWPRP | 0.525
RRIRCRPPRLPRPRPRPMTEPRP | -0.123
RRIRLRPPRLPRPRPRPMRHPRP | 0.188
RRIRIRPPRLPRPRPRPDECPRP | 0.0238
RRIRQRPPRLPRPRPRPKYYPRP | -0.746
RRIRPRPPRLPRPRPRPAAKPRP | 0.435
RRIRRRPPRLPRPRPRPSAVPRP | 0.368
RRIRWRPPRLPRPRPRPSMDPRP | -0.128

Sequence | shrunken log2 fold change
RRIRYRPPRLPRPRPRPSWWPRP | -0.511
RRIRSRPPRLPRPRPRPWTIPRP | -0.133
RRIRSRPPRLPRPRPRPSPNPRP | 0.0503
RRIRYRPPRLPRPRPRPKIWPRP | -0.475
RRIRGRPPRLPRPRPRPSWHPRP | 0.0802
RRIRFRPPRLPRPRPRPHCDPRP | -0.252
RRIRNRPPRLPRPRPRPNRMPRP | -0.385
RRIRDRPPRLPRPRPRPNIPPRP | -0.623
RRIRPRPPRLPRPRPRPRQWPRP | 0.485
RRIRDRPPRLPRPRPRPDHIPRP | -0.0651
RRIRYRPPRLPRPRPRPWLVPRP | -0.096
RRIRWRPPRLPRPRPRPQAVPRP | 0.232
RRIRDRPPRLPRPRPRPFQHPRP | -0.202
RRIRKRPPRLPRPRPRPSTHPRP | -0.17
RRIRARPPRLPRPRPRPRFMPRP | 0.0944
RRIRCRPPRLPRPRPRPNNMPRP | -0.745
RRIRRRPPRLPRPRPRPQIRPRP | 0.178
RRIRQRPPRLPRPRPRPRHNPRP | -0.0654
RRIRQRPPRLPRPRPRPFLHPRP | 0.0118
RRIRHRPPRLPRPRPRPNQKPRP | -0.0319
RRIRIRPPRLPRPRPRPKTWPRP | -0.258
RRIRVRPPRLPRPRPRPLHKPRP | -0.192
RRIRWRPPRLPRPRPRPWELPRP | -0.0481
RRIRARPPRLPRPRPRPDWYPRP | -0.213
RRIRCRPPRLPRPRPRPYSGPRP | -0.566

Sequence | shrunken log2 fold change
RRIRVRPPRLPRPRPRPNTDPRP | -0.626
RRIRKRPPRLPRPRPRPNRNPRP | -0.234
RRIRRRPPRLPRPRPRPRTAPRP | 0.458
RRIRKRPPRLPRPRPRPNMRPRP | 0.334
RRIRERPPRLPRPRPRPVDRPRP | 0.0364
RRIRRRPPRLPRPRPRPNLVPRP | -0.023
RRIRVRPPRLPRPRPRPIPKPRP | -0.131
RRIRKRPPRLPRPRPRPFWTPRP | 0.0312
RRIRDRPPRLPRPRPRPSVFPRP | 0.423
RRIRYRPPRLPRPRPRPFPFPRP | -0.271
RRIRERPPRLPRPRPRPVTMPRP | -0.433
RRIRPRPPRLPRPRPRPSHGPRP | 0.108
RRIRLRPPRLPRPRPRPNYQPRP | -0.773
RRIRHRPPRLPRPRPRPMQPPRP | 0.172
RRIRIRPPRLPRPRPRPKWGPRP | -0.00761
RRIRFRPPRLPRPRPRPKDMPRP | -0.0249
RRIRTRPPRLPRPRPRPSRGPRP | 0.178
RRIRYRPPRLPRPRPRPSKAPRP | -0.223
RRIRWRPPRLPRPRPRPQATPRP | 0.381
RRIRGRPPRLPRPRPRPWNLPRP | 0.000264
RRIRVRPPRLPRPRPRPMFNPRP | -0.4
RRIRQRPPRLPRPRPRPFTWPRP | -0.398
RRIRKRPPRLPRPRPRPPTMPRP | 0.412
RRIRLRPPRLPRPRPRPRPEPRP | 0.799
RRIRYRPPRLPRPRPRPRRRPRP | -0.0051

Sequence | shrunken log2 fold change
RRIRHRPPRLPRPRPRPQHMPRP | -1.2
RRIRNRPPRLPRPRPRPTACPRP | 0.0275
RRIRGRPPRLPRPRPRPQPQPRP | 0.706
RRIRHRPPRLPRPRPRPEAHPRP | -0.00101
RRIRMRPPRLPRPRPRPYQKPRP | -0.0182
RRIRRRPPRLPRPRPRPCRYPRP | -0.0616
RRIRGRPPRLPRPRPRPHKTPRP | -0.0617
RRIRCRPPRLPRPRPRPTWLPRP | -0.227
RRIRHRPPRLPRPRPRPELYPRP | -0.215
RRIRYRPPRLPRPRPRPLVDPRP | -0.289
RRIRDRPPRLPRPRPRPHTAPRP | -0.0443
RRIRIRPPRLPRPRPRPKHSPRP | -0.447
RRIRSRPPRLPRPRPRPWGWPRP | 0.0685
RRIRFRPPRLPRPRPRPYRKPRP | -0.186
RRIRFRPPRLPRPRPRPKYCPRP | 0.124
RRIRVRPPRLPRPRPRPLIEPRP | 0.103
RRIRARPPRLPRPRPRPFMLPRP | -0.0197
RRIRVRPPRLPRPRPRPYYSPRP | -0.235
RRIRIRPPRLPRPRPRPMIYPRP | -0.205
RRIRARPPRLPRPRPRPFRHPRP | -0.0722
RRIRNRPPRLPRPRPRPAKNPRP | 0.0221
RRIRFRPPRLPRPRPRPYHHPRP | -1.16
RRIRQRPPRLPRPRPRPVTEPRP | -0.35
RRIRMRPPRLPRPRPRPFIDPRP | -0.438
RRIRYRPPRLPRPRPRPVMGPRP | -0.0133
